Results as given in publication PMC2759517 (2009).
Where no end group is shown, it is not given here.

Columns and labels:
[1] = biological target: T1, HA-tagged PA of FluB (Influenza B virus); assay: ELISA
T1 chain: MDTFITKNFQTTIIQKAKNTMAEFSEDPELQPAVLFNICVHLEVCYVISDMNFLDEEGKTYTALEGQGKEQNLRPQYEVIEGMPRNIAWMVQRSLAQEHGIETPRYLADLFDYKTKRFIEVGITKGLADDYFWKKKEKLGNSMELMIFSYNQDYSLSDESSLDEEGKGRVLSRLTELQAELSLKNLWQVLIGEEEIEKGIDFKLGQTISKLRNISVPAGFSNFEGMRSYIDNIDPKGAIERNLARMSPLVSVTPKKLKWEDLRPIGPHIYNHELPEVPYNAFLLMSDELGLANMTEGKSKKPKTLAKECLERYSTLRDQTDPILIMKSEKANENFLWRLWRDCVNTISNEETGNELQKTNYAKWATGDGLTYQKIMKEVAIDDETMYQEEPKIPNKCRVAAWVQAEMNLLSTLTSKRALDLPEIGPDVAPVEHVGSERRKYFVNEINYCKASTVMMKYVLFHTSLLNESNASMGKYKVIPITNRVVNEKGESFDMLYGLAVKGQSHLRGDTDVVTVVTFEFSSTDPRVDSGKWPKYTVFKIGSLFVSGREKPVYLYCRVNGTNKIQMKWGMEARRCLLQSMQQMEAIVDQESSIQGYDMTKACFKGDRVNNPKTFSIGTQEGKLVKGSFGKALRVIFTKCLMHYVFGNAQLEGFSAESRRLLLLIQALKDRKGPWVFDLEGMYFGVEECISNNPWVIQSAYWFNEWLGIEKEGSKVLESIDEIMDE

[2] = biological target: HA-tagged PA of FluA (Influenza A virus); assay: ELISA

Binder	IC50 [1] [nM]	IC50 [2] [nM]
MDVNPTLLFLKVPAQ-NH2 [PB1_(1–15)A competitor peptide]	> 3000	–
MNINPYFLFIDVPIQ-NH2 [PB1_(1–15)B competitor peptide]	45	> 3000
